The DeepSol protein solubility set

test: soluble on expression in E. coli; label from the status in PepcDB or PDB records

| Sequence | soluble on expression in E. coli |
| --- | --- |
| AIANNSHTGFVGEMFGSSDILRSVSIPSEADKPMIVELAVAAMEELVRMAQTGDPLWVSSDNSVEILNEEEYFRTFPRGIGPKPIGLRSEASRESTVVIMNHINLIEILMDVNQWSSVFCGIVSRALTLEVLSTGVAGNYNGALQVMTAEFQVPSPLVPTRENYFVRYCKQHSDGIWAVVDVSLDSLRPSPITRSRRRPSGCLIQELQNGYSKVTWVEHIEVDDRSVHNMYKPLVNTGLAFGAKRWVATLDRQCERLASSMASNIPACDLSVITSPEGRKSMLKLAERMVMSFCTGVGASTAHAWTTLSTTGSDDVRVMTRKSV | soluble |
| MAHHHHHHMIGGQHTKERLSERLQDCQNQPKNRGYLPGTKLLTGGYSTRTLQGNWAEERMDAGYYDGEAVFPTHLARAWTTDYRTMTSNVSGSLTRPVFDQATLMDIVDHKHRSYPAHQPYLDQQRDEVMQERFKTTTRTSYINPEERKREAQLHIPPVIGRTPTAQARAVILRIQRQLLLSRHGESAFPGNILRQIRLTLQRNDTAGEGMLTVEEAEKGFEEAFLVVSRPECVALVRAFDLKEDGTISIAKIMEELRGELRDRRYSLVEKVYEMLKGFSPDGIVRLQRLAELVDVDSMNAVMNGKVTSSLAHDAFVEQWDLPIDSYISFENFLLYFMDASFEIESDQEFEVFMRNVWHLSGGNGKSMNTSCRRVRVVHRNGRMSTQEVKNDLCIKDSDPNLQERIIANLASWGIKDVARVEMLPRNL | not soluble |
| MSLSMCGNKISVIRPLPAEVVKKIAAGEIIARPSSAIKELIENSVDAGATEIRVNLSSNPLDFCEIIDNGSGVSEKDLMIICQRYTTSKTTDSIEGVRSLGFRGEALSSLSQNSHVTISSRTENENMRTVMTYSECEPVLDEIRYEEGPRGFHLKYENLFYNYEIRSKSLLSNINSEFISCLHLVQKYSIHFPNINFVFNRTSSPILDLNNLNNVSSQQSSGSGSGDSCSSQPNCNFSTSSRFDDYDSSDDELDITLTQKLEYDYHYFTKMYDDPKSDDLRTEYIRNVEKVSFDCLRVIKENIKRIYGLKVSNVLQEVVFNNFDDLFFNCKGLISHPNQPCKLDMFILFVNNRLIDLPNLRRMIFNTYNDITNNRYRRFVYLSIFVPYDQIDSNIHPTKKRIMIENQAEIVEQITKFFHDKITELIKSATTEGHHHHHH | soluble |
| HHHHHHMAKKVNWYVSCSPRSPEKIQPELKVLANFEGSYWKGVKGYKAQEAFAKELAALPQFLGTTYKKEAAFSTRDRVAPMKTYGFVFVDEEGYLRITEAGKMLANNRRPKDVFLKQLVKWQYPSFQHKGKEYPEEEWSINPLVFVLSLLKKVGGLSKLDIAMFCLTATNNNQVDEIAEEIMQFRNEREKIKGQNKKLEFTENYFFKRFEKIYGNVGKIREGKSDSSHKSKIETKMRNARDVADATTRYFRYTGLFVARGNQLVLNPEKSDLIDEIISSSKVVKNYTRVEEFHEYYGNPSLPQFSFETKEQLLDLAHRIRDENTRLAEQLVEHFPNVKVEIQVLEDIYNSLNKKVDVETLKDVIYHAKELQLELKKKKLQADFNDPRQLEEVIDLLEVYHEKKNVIEEKIKARFIANKNTVFEWLTWNGFIILGNALEYKNNFVIDEELQPVTHAAGNQPDMEIIYEDFIVLGEVTTSKGATQFKMESEPVTRHYLNKKKELEKQGVEKELYCLFIAPEINKNTFEEFMKYNIVQNTRIIPLSLKQFNMLLMVQKKLIEKGRRLSSYDIKNLMVSLYRTTIECERKYTQIKAGLEETLNNWVVDKEVRF | soluble |
| DLRRQLRKAVMDHVSDSFLETNVPLLVLIEAAKNGNEKEVKEYAQVFREHANKLIEVANLACSISNNEEGVKLVRMSASQLEALCPQVINAALALAAKPQSKLAQENMDLFKEQWEKQVRVLTDAVDDITSIDDFLAVSENHILEDVNKCVIALQEKDVDGLDRTAGAIRGRAARVIHVVTSEMDNYEPGVYTEKVLEATKLLSNTVMPRFTEQVEAAVEALSSDPAQPMDENEFIDASRLVYDGIRDIRKAVLMI | soluble |
| GPMPQLTLDKTDIKILQVLQENGRLTNVELSERVALSPSPCLRRLKQLEDAGIVRQYAALLSPESVNLGLQAFIRVSIRKAKDAREDFAASVRKWPEVLSCFALTGETDYLLQAFFTDMNAFSHFVLDTLLSHHGVQDAQSSFVLKEIKHTTSLPLNHLLKE | soluble |
| MERTFSEALKNRRTYYSITDQSPIPDQEIECIINLAVRHVPSAFNSQSTRVVLLLGKSHKKLWNIVKDALRKIVPGEAFAKTEEKIDNSFACGYGTVLFFEDQKVVKGLQEAFPSYQENFPGWSLQTSAMHQLAVWVMLEDVGFGASLQHYNPLIDDEVRRAWNLPAHWHLIAEMPFGVPVNKPGEKEFQPLEERIKVFK | not soluble |
| MDRFNEYRIMWVLVLFDLPTETKKEKKAYADFRKNLQKDGFTMFQFSIYVRHCGSSENAAVHIKRVKSFLPEFGHVGIMCITDKQFGDIELFYGKKVQDVNTPGQQLELFLEHHHHHH | not soluble |
| MIAPQPPMHLSGRCVCPSDPQFVEEKGIQAEDLVIGALENAFQECDDVIGRELEASGQVGGCTALVAVFLQGKLYVANAGDSRAILVRRHEIRQLSSEFTPETERQRIQQLAFTYPELLAGEFTRLEFPRRLKGDDLGQKVLFRDHHMRGWSYKRVEKSDLKYPLIHGQGRQARLLGTLAVSRGLGDHQLRVLDTDIQLKPFLLSIPQVTVLDVHQLAVQEEDVVVMATDGLWDVLSNEQVALLVRSFLTGNQKDDPHRFSELAKMLIHNTQGKDNGATGEGQVSYDDVSVFVIPLHSQAQEGSGH | soluble |
| MKPLSSAIAAALILFSAQGVAEQTTQPVVTSCANVVVVPPSQEHPPFDLNHMGTGSDKSDALGVPYYNQHAM | soluble |
| MGSDKIHHHHHHMNILVTGANGFVGQTLCPALERAGLRAVRAVRISTRYEEISVGEVDGETSWSRVFDEGIDGVVHLAAKVPLAEKEKEAADSYHRVNTLGTVRLARECAARGIRRFVFISTVKVLGEECDKPFQADDSAVPSDAYAISKWEAEQSLRQISAETGMEVVILRPPLVYGPGVGGNFLRLLQMVDRRIPLPLGAIHNRRSLIYLGNLVDIIRLCLTHPDAASKTFMVSDGEDVSTPGLIRRIGSVLGHGSFLLPVPAAWMRRVGDLLGKRSAIDRLTGSLSVDSMPVQKELGWLPPYGMQAGLALTVQWYRQHKPETKS | not soluble |
| FISSRANVDDLKSIENKSDFVATENMPNYVKGAFISMEDERFYKHHGFDIKGTTRALFSTISDRDVQGGSTITQQVVKNYYYDNERSFTRKIKELFVARKVEKQYSKNQILSFYMNNIYYGDNQYTVEGAANHYFGVTVDKNNSNMSQISVLQSAILASKVNAPSVYD | not soluble |
| MKSALSLLGERQQSLLTALLHHRKGLTVEELSSLLTISRNAVNQHLTHLGSSGFIQSALQESTGGRPGRVYTLTPNGLELFQRRYSFLAKLLLSWIDKNMGEHELDVCLTELGKEMASGLEHRLTQHTSRSDKLQEAITIMSELGYDTEIYRISENQAEIVANNCVFQELAQQHQEFCKLDISFLKHLLKADIEHTECIVRNGKYCRFRITSPDESGS | not soluble |
| EHRSIMNTLNFLESHYPVTAEDAYLLKTNYVFDVSISELFGWFIGDGRLVILPPNGEKSPQLCMDYIETYKVTHINFVPAMLHVFLEMAKDNKRFTEDGPLKYMMVAGEAFPKVLVKKAVSLFTNCRVENIYGPTEASIYAAYFGCGKGDIASHHTPIGKP | not soluble |
| MISSKLKLQSLTSKDLSAILELDQACFGGLWTMEGYQRELDSPNSDLLGLFSPSSPIKLLGMGCFWSIVGEAHITILAVHPQYHHQGLGQALLYFLLRTASDRGLERATLEVRASNEAAISLYQKFGFQTAGRRRAYYQDNGEDALILWLPDLQYPQFQETLAHWKTIIQDGLQKYSWSIVNSR | soluble |
| MAGLGHPAAFGRATHAVVRALPESLGQHALRSAKGEEVDVARAERQHQLYVGVLGSKLGLQVVELPADESLPDCVFVEDVAVVCEETALITRPGAPSRRKEVDMMKEALEKLQLNIVEMKDENATLDGGDVLFTGREFFVGLSKRTNQRGAEILADTFKDYAVSTVPVADGLHLKSFCSMAGPNLIAIGSSESAQKALKIMQQMSDHRYDKLTVPDDIAANCIYLNIPNKGHVLLHRTPEEYPESAKVYEKLKDHMLIPVSMSELEKVDGLLTCCSVLINKKVDS | not soluble |
